Results: the nanobody polyreactivity screen of Harvey et al. (2022)

test: yeast display, Sf9 membrane polyspecificity reagent, FACS + sequencing; frameworks hold sequencing errors
Summary of the method: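 Galactose-induced (36–48 hours) yeast carrying a synthetic nanobody display library were exposed to 10% biotinylated, detergent-solubilized Sf9 membrane reagent at 4 °C for 1 hour. FACS followed streptavidin microbead enrichment, using low and high (top ~1%) gates for expression (anti-HA) and reagent binding (streptavidin). Colony PCR, MiSeq 2 × 250 sequencing and CDR-length filtering followed. Labels for polyreactivity reflect the gate of origin.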

Row | Sequence | polyreactivity (PSR sort gate)
1 | QVQLVESGGGLVQAGGSLRFSCAASGSIFKTNAIGWYRQAPGKERELVAAIRASGGSTYYADSVKGRFTISRDNAKNTVYLQMNSLKPEDTAVYYCAARVSGSRKYYYWGQGTQVTVSS | high polyreactivity
2 | QVQLVESGGGLVQAGGSLRFSCAASGSIFPYYAMGWYRQAPGKERELVAAISDSGDSTYYADSVKGRFTISRDNAKNTVYLQMNSLKPEDTAVYYCAADQTSSYYDPWGDYWGQGTQVTVSS | low polyreactivity
3 | QVQLVESGGGLVQAGGSLRFSCAASGSIFSVYAMGGYRQAPGKERELVASITSGGRTKYADSVKGRFTISRDNAKNTVYLQMNSLKPEDTAVYYCAAGTTWRYGGKYNYWGQGTQVTVSS | low polyreactivity
4 | QVQLVESGGGLVQAGGSLRFSCAASGSTFQYYAMGWYRQAPGKERELVAAISYGGSRTYYADSVKGRFTISRDNAKNTVYLQMNSLKPEDTAVYYCANEKYRALAPYYYWGQGTQVTVSS | high polyreactivity
5 | QVQLVESGGGLVQAGGSLRFSCAASGSTFRKNAMGWYRQAPGKERELFASISISGGRTNYADSVKGRFTISRDHAKNTVYLQLNSLKPEDTAVYDCAATTSPRSARYYYWGQGTQVTVSS | high polyreactivity
6 | QVQLVESGGGLVQAGGSLRFSCAASGSTFRPNAMGWYRPAPGKERELVAAISRSGVSTYYADSVKGRFTISRDNAKNTVYLQMNSLKPEDTAVYYCAAKLVVSYGQEYDYWGQGTQVTVSS | low polyreactivity
7 | QVQLVESGGGLVQAGGSLRFSCAASGSTFVRYPMGWYRQAPGKERELVAAITRSGGRTYYADSVKGRFTISRDNAKNTVYLQMNSLKPEDTAVYYCAADVSHVQGYDYWGQGTQVTVSS | high polyreactivity
8 | QVQLVESGGGLVQAGGSLRFSCAASGSTFVYYAMGWSRQAPGKERELVARITLSGTSTSYADSVKGRFTISRDNAKNTVYLQMNSLKPEDTAVYYCAAESWSHRYYYWGQGTQVTVSS | low polyreactivity
9 | QVQLVESGGGLVQAGGSLRFSCAASGSTFYAYAMGWYRQAAGQERELVAAIDSGGSTYYADSVKGRFTISRDNAKNTLYLQKNSLNPEDTAVYYCAVRHRYTRAYWGRDYWGQGTQVTVSS | low polyreactivity
10 | QVQLVESGGGLVQAGGSLRFTCAASGRIFLGYAMGWYRQAAGKEREFVAAINSVASTNYADSVKGRFTISRDNAKNTVYLQMNSLKPEDTAVYYCAAVYFLVQSDLPAYDYWGQGTQVTVSS | low polyreactivity
11 | QVQLVESGGGLVQAGGSLRFTCAASGRIFRTNAMGWYRQAHGKEREFVAAISKDGGRTYYADSVKGRFTISRDNAKNTVYLQMNSLKPEDTAVFYCNVLVKHSTTTYSTYDYWGQGSQVTVSS | high polyreactivity
12 | QVQLVESGGGLVQAGGSLRIICAASGRIFYGNTMGWYRQAPGKERELVAAITIGDSTNYADSVKGRFTISRDNAKNTVYFQMNSLKPEDTAVYYCAKRNWWGYYNYDYWGQGTQVTVSS | low polyreactivity
13 | QVQLVESGGGLVQAGGSLRIICAASGYIFVRNAMGWYRQAPGKERELVAAISCSGGSTYYADSVKGRFTISRDNAKNTVFLQMNSLKPEDTAVYSCAADYATVTWRGIAYDYWGQGTQVTVSS | low polyreactivity
14 | QVQLVESGGGLVQAGGSLRIICAATGSIFYWNAMGWYRQSPGKEREFVASIRKSGGSTNYADSVKGRFTISRDNAKNTVYLQMTSQKPEDTAVYYCAAYSYYRGTFYDYWGQGTQVTVSS | low polyreactivity
15 | QVQLVESGGGLVQAGGSLRIRCAASGRIFNQYAMGWYRQAPGKERELVASITQRGGRTYYADSVKGRFTISRDNAKNTVYLQMNSLKPEDTAVYYCAKQCYYVTARTGYDYWGQGTQVTVSS | high polyreactivity
16 | QVQLVESGGGLVQAGGSLRISCAASGFIFAHNAMGWYRQAPGKERELVAAITSSGGSTYYADSVKGRFTISRDNAKNTVYLQMNSLKPEDTAVYYCAAYWKLGGFRYGYWGQGTQVTVSS | high polyreactivity
17 | QVQLVESGGGLVQAGGSLRISCAASGFIFASYTMGWYRQAPGKERELVAAISRAGSTYYADSVKGRFTISPDNAKNTVYLQMNSLKPEDTAVYYCNAVSWRTSRYDYWGQGTQVTVSS | high polyreactivity
18 | QVQLVESGGGLVQAGGSLRISCAASGFIFFPYTRGCSRQAPGKLMELVAAITNGGSTSYADSVKGRFTISRDNAKKTGYLQMNSLKPEDTAVYSCAAVLGRNLLHTYYYWGQGTQVTGSS | low polyreactivity
19 | QVQLVESGGGLVQAGGSLRISCAASGFIFRGNTMGWYRQAPGKERELVASITRGGGRTYYADSVKGRFTISRDNAKNTVYLQMNSLKPEDTAVYYCAARTRSDNSYHGGEYWGQGTQVTVSS | high polyreactivity
20 | QVQLVESGGGLVQAGGSLRISCAASGFIFRRYAMGWYRQAPGKERELVAAIRTNSGSTYYADSVKGRFTISRDNAKNTVYLQMNSLKPEDTAVYYCATGQVYRTVSWLYNYWGQGTQVTVSS | high polyreactivity
21 | QVQLVESGGGLVQAGGSLRISCAASGFIFTLYAMGWYRQAPGKERELVAAISKRGGSTNYADSVKGRFTISRDNAKNTVYLLMNSLKPEDTAVYYCANARPGFLYDHWGQGTQLTVSS | high polyreactivity
22 | QVQLVESGGGLVQAGGSLRISCAASGFIFVFYDRGWYRQAPGKEREFVAGITRNDGSTYYADSVKGRFKISRDNAKNTVYLQMNSLKPEDTAVYYCAAADSTWFDWGNYWYYYWGQGTQVTVSS | low polyreactivity

Row | Sequence | polyreactivity (PSR sort gate)
23 | QVQLVESGGGLVQAGGSLRISCAASGFIFYYAMGWYRQAPGKERELVAAISSGSSTYADSVKGRFTISRDNAKNTVYLQMNSMKPEDTAVYYCAAKTQNAYYWGQGTQVTVSS | low polyreactivity
24 | QVQLVESGGGLVQAGGSLRISCAASGFTFAYYAMGRYRQAPGKERELVASITSGGSTYYADSVKGRFTISRDNAKNNVYLQMNSLKPEDTAVYYCAADSSIDYDWGQGTQVTVSS | high polyreactivity
25 | QVQLVESGGGLVQAGGSLRISCAASGFTFRSYVMGWYRQAAGKEWELVAAISSRGSSTSYADSVKGRFTISRDNAKNTVYLQMNSLKPEDTAVYDCAPRLFWRGRKFAYWGQGTQVTVSS | high polyreactivity
26 | QVQLVESGGGLVQAGGSLRISCAASGFTFRWYTMGWYRQAPGKERELVAAISWSGTSTYYADSVKGRFTISRDNAKNTVYLQMNSLKPEDTAVYYCAAADFYYTGADDYWGQGTQVTVSS | high polyreactivity
27 | QVQLVESGGGLVQAGGSLRISCAASGFTFSRNVMGWYRQAPGKERELVADITLSGASTYYADSVKGRFTISRDNAKNTVYLQMNSLNPEDTAGYYCAADPYLWRWGWRHDYWGQGTQVTVSS | low polyreactivity
28 | QVQLVESGGGLVQAGGSLRISCAASGFTFTYYTMGWYRQAPGKERELVAAINRSGTSTYYADSVKGRFTISRDNAKNTVYLQMNSLKPEDTAVYYCAAKFTTGYYYGVPRDYWGQGTQVTVSS | high polyreactivity
29 | QVQLVESGGGLVQAGGSLRISCAASGFTFYNYAMGWYRQAPGKRELVAAITSGGRTNYADSVKGRFTISRDNAKNTVYLQMNSRIPEDTAVYYCNAYPRWKFRSQVYDGWYGRFDYWGQGTQVTVSS | high polyreactivity
30 | QVQLVESGGGLVQAGGSLRISCAASGGIFDTYVMGWYRQAPGKERELVAAISSSGSTTYADSVKGRFTISRDNAKNTVYLQMNSLKPEDTAVYYCNADYSTIWRYDYWGQGTQVTVSS | low polyreactivity
31 | QVQLVESGGGLVQAGGSLRISCAASGGNFRYYTMGWYRQAPGKERELVAAITRGGRTYYADSVKGRFTISRDNAKNTVYIQMNSLKPEDTAVYYCAAVRPRSPVSYENDYWGQGTQVTVSS | high polyreactivity
32 | QVQLVESGGGLVQAGGSLRISCAASGGTFTKNAMGWYRQAPGKERELLAAISWRGTSTYYADSVKGRFTISRDNAKNTVYLQMNSLKPEDTAVYYCNTDRYFRRYYWYDYWGQGTQVTVSS | high polyreactivity
33 | QVQLVESGGGLVQAGGSLRISCAASGIIFKQNVMGWYRQAPGKERELVAAITSRDGSTYYADSVKGRFTISRDNAKNTVYLQMNSLKPEDTAVYYCAANWRSPRYYLYGYWGQGTQVTVSS | high polyreactivity
34 | QVQLVESGGGLVQAGGSLRISCAASGIIFPYAMGWYRQAPGKERELVARITVGSTSYADSVKGRFTISRDNAKNTVYVQMNSLKPEDTAVYYCNKDSGEDDRWPYDYWGQGTQVTVSS | low polyreactivity
35 | QVQLVESGGGLVQAGGSLRISCAASGIIFPYYVMGWYRQAPGKERELVAAINSGGRTYYADSVKGRFTISRDNAKNTVYLQMNSLKPEDTAVYYCARDLYYVYSFAPYRYEYWGQGTQVTVSS | low polyreactivity
36 | QVQLVESGGGLVQAGGSLRISCAASGIIFRGNAMGWYRQAPGKERELVAAISSGGGTYYADSVKGRLTISRDNAKNTVYLQMNSLKPEDTAVYYCNRVRYYQYGYDYWGQGTEVTVSS | high polyreactivity
37 | QVQLVESGGGLVQAGGSLRISCAASGITFPYYAMGWYRQAPGKERELVADITSGGSTNYADSVKGRFTISRDNAKNTVYLQMNSLKPEDTAVYYCAADWYVIYDYWGQGTQVTVSS | low polyreactivity
38 | QVQLVESGGGLVQAGGSLRISCAASGITFRYYAMGWSIQAPGKERELVAAITCNGGGTYADSVKGRFTISRDNAKYTVYLEMNSLKPEDTAVYSCSADYGRRWGYDYWGQGTQVTVSS | low polyreactivity
39 | QVQLVESGGGLVQAGGSLRISCAASGITFWYYAMGWYRQAPGKERELVAAITRSGRTNYADSVKGRFTISRDNAKNTVYLQMNSLKPEDTAVYYCNAASLRYSYTLFDSWGLGTQVTVSS | high polyreactivity
40 | QVQLVESGGGLVQAGGSLRISCAASGITLNVYAMGWYRQAPGKERELVAAISYNGGRTYYADSVKGRFTISRDNAKNTVYLQMNSLKPEDTAVYYCAAQWPWGPYDYWGQGTQVTVSS | high polyreactivity
41 | QVQLVESGGGLVQAGGSLRISCAASGITLYNYPMGWYRQAPGKERELVAAISLSGGRTYYAESVKGRFTISRDNAKNTVYLQMNSLQTEDTAVYYCAADWLNSDPYNYWGQGTQVTVSS | low polyreactivity
42 | QVQLVESGGGLVQAGGSLRISCAASGLILIVYAMGWYRQAPGKERELVAAISSGGITYYADSVKGRFTISRDNAKNTVYLQMNSLKPEDTAVYYCAAESAYWWGDYYYWGQGTQVTVSS | high polyreactivity
43 | QVQLVESGGGLVQAGGSLRISCAASGNAMGWYRQAPGKERELVAVITGGGSTYYADSVKGRFTISRDNAKNTVYLQMNSLKPEDTAVYYCAAKGPYYKSSRTGDYWGQGTQVTVSS | low polyreactivity
